Drawing on PMC11903750, this text covers fold reduction of koff with edeine against no antibiotic and fold reduction of koff with GE81112 against no antibiotic for one substance.

Assay [1] addresses 30S ribosomal subunit (E. coli) (UniProt P0A7R9). Kind of assay: FRET or BRET; as a4, with 5 µM edeine. In general terms: Bioluminescence resonance energy transfer reports proximity on the nanometre scale.
The target is the same in assay [2]. Kind of assay: FRET or BRET; as a4, with 5 µM GE81112.

As for “IF3 E166C, double-labelled (IF3DL) (from UniProt P0A707 1-180) (natural protein)”, the fold reduction of koff with edeine against no antibiotic in assay [1] was determined as 4 fold. In assay [2], this substance returned a fold reduction of koff with GE81112 against no antibiotic of 2 fold.
